Data set [1] concerns HCE cells. The data set can be described thus: Divalent cation sensitivity of βig-h3-mediated adhesion. The format is cell-based, human. Conditions: cells incubated 30 min with divalent cations in HBS. As for the experimental part: To analyze the divalent cation sensitivity of βig-h3-mediated adhesion, cells were suspended in HEPES-buffered saline (HBS) (150 mM NaCl, 25 mM HEPES, 2 mM EDTA, pH 7.4) at a density of 2×10^5 cells/ml and incubated at 37° C. for 30 min. Then, they were washed twice in HBS and resuspended in the same buffer. Aliquots of cells (50 μl) were then added to the microculture plate wells and incubated for 30 min at 37° C. in a humidified atmosphere of 5% CO2 with 50 μl aliquots of HBS containing divalent cations (MnCl2, MgCl2 or CaCl2) at a concentration twice as large as the final concentration. Subsequently, they were plated on ligand-coated dishes to perform the adhesion assay.

Data set [2] concerns Human corneal epithelial (HCE) cells. In words: HCE cell adhesion and spreading assay on protein-coated plates. The format is cell-based. The method, then: Human corneal epithelial (HCE) cells used in this assay were cultured in DMEM ([…], Gibco BRL) supplemented with 15% fetal bovine serum, Gentamicin (40 μg/ml), insulin (5 μg/ml), cholera toxin (0.1 μg/ml) and human epidermal growth factor (hEGF) at 37° C. in 5% CO2.
The cell adhesion assay was performed as follows. First, the recombinant βig-h3 proteins or other extracellular matrix proteins were let to adhere to the bottoms of 96-well microculture plates (Falcon) by incubation at 37° C. for 1 hour and blocked with PBS containing 0.2% BSA. The coated extracellular matrix proteins were human plasma vitronectin (Promega), purified human plasma fibronectin (pFN), chicken collagen types I and II (Chemicon International Inc.), bovine collagen types IV and VI (Chemicon), mouse laminin (Chemicon), and bovine serum albumin (BSA) (Sigma). Cells were trypsinized and suspended in the culture media at a density of 2×10^5 cells/ml. 0.1 ml of the cell suspension was added to each well of the plates coated with the recombinant proteins.
Following incubation at 37° C. for 1 hour, unattached cells were removed by rinsing with PBS. Attached cells were incubated for 1 hour at 37° C. in 50 mM citrate buffer, pH 5.0, containing 3.75 mM p-nitrophenol-N-acetyl 1-β-D-glycosaminide as a hexosaminidase substrate and 0.25% Triton X-100, followed by the addition of 50 mM glycine buffer, pH 10.4, containing 5 mM EDTA to block the enzyme activity. A measurement was made of absorbance at 405 nm in a Multiskan MCC/340 microplate reader.
To determine cell area as an index for cell adhesion activity, 4×10^4 cells were applied to substrates in 48-well culture plates. The attached cells were fixed weith 8% glutaraldehyde (Sigma) and then stained with 0.25% Crystal Violet (Sigma) in 20% methanol. Measurement of cell areas was performed by Image-Pro plus software (Media Cybernetics). Experiments were repeated in triplicate with 200 or 300 measurements per site for each experiment. Data is reported as the mean area at specific time points±standard error of mean.

Data set [3] is described as follows: Expression form and non-denaturing gel electrophoresis of recombinant proteins. The format is physicochemical. The conditions noted are these: electrophoresis using non-denaturing gel. As for the experimental part:
The recombinant proteins containing at least one 4th domain, such as βig3-D-IV, 2X, 3X and 4X were prepared as follows. A DNA fragment encoding to amino acid 498-637 corresponding the 4th domain was obtained by PCR and the PCR products were blunt-ended by Klenow enzyme. This blunt-ended cDNA fragment was inserted to the EcoRV site of the pβig-h3 D-IV, which contained the 4th domain of βig-h3, and the resulting expression vector was named pβI-h3 D-IV 2X. The insert of the pβig-h3 D-IV 2X was excised by digestion with EcoRV and XhoI and blunt-ended by treatment with Klenow, followed by inserting the blunt-ended fragment into EcoRV sites of pβig-h3 D-IV and pβig-h3 D-IV 2X. The resulting expression vectors were named pβig-h3 D-IV 3X and pβig-h3 D-IV 4X. Expression of all recombinant proteins was induced for 3 hours in the presence of 1 mM IPTG and isolated by use of Ni-NTA resin (Qiagen).

The subject of data set [4] is dermal whole layer wounds on the backs of rats. In words: Wound healing with ointment bases on dermal whole layer wounds (2 cm) of rats. The format is in vivo, rat. The arrangement: key to Formation grade of collagenous fibers at wound: 0: negative; 1+: insignificant; 2+: scatteringly formed; 3+: very dense; key to Re-ephithelialization of Wound (grade): 0: zero was set for the formation of no epithelial layers; 1+ for initiation of epithelialization; 2+ for incomplete epithelial layer structure; 3+ for complete epithelial layer structure. Conditions: for wound area: ointment 100 μg/ml, 1 g per day, mean. As for the experimental part:
To compare wound healing activity between the recombinant βig-h3 protein His-β-b, which contains all of the four fas-1 domains, like native βig-h3 protein, and the recombinant βig-h3 protein βigh3-D-IV, which contains the 4th domain alone, ointment bases comprising the recombinant proteins were tested as follows.
Four dermal whole layer wounds, each 2 cm in diameter, were made on the backs of rats and divided into test groups 1-A, 1-B, 1-C and 1-D according to the ointment applied thereto.
1-A: coated at a dose of 1 gm per day with an ointment base combined with no materials.
1-B: coated at a dose of 1 gm per day with an ointment in which fibronectin was combined at a concentration of 100 μg/ml with a base.
1-C: coated at a dose of 1 g per day with an ointment in which Hisβ-b protein was combined at a concentration of 100 μg/ml with a base.
1-D: coated at a dose of 1 g per day with an ointment in which βigh3-D-IV protein was combined at a concentration of 100 μg/ml with a base.
The backs of etherized rats were shaved, followed by sterilizing the shaved region with betadin solution. In test group 1, the back of each rat was cut by use of a No. 15 surgical blade to form four circular wounds with a diameter of 2 cm penetrating the whole dermal layers. Ointments for test groups 1-A, 1-B, 1-C and 1-D were applied at an amount of about 1 g to the wounds which were then covered with a synthetic dressing (Tegaderm® 3M) and lightly bandaged. Application of ointments was performed once every day.
With a base of an aqueous material (SamA base), each of the ointments contained, per 1 g, spermaceti 38 mg, stearyl alcohol 116 mg, polyethylglycol 38 mg, conc. glycerin 192 mg, ethanol 23 mg, […], ethyl paraoxybenzoate 0.87 mg, butyl paraoxybenzoate 0.12 mg, and purified water.
First, morphologies of wounds were observed. The same scale was positioned near each wound and pictures were taken at the same distance from each wound. Pictures were scanned in a computer and used to measure areas of the wounds with the aid of NIH image analysis system (Bio-Optics). To take the pictures, the muscle was completely relaxed by etherizing the rats. Measurements were performed once every other day until the 22nd day. For comparing test groups, the measured values were analyzed according to ANOVA test and Scheffer's test.
Histological analysis was conducted under an optical microscope. Biopsies of wound sites were taken at days 3, 7, 10, 14 and 20, and fixed in 10% formalin and solidified with paraffin. 6 μm slices of the samples were dyed with hematoxylin-eosin (H&E) and Masson's trichrome before observation under a microscope. Wound healing effects according to time of each test material were evaluated through re-epithelialization and formation of collagenous fibers. In the case of re-epithelialization, epithelial formation was semi-quantified in such a way that zero was set for the formation of no epithelial layers, 1+ for initiation of epithelialization, 2+ for incomplete epithelial layer structure, and 3+ for complete epithelial layer structure. Regarding comparison among test groups and differences according to time within each group, measured values were statistically analyzed using ANOVA test and Scheffe's test. As for collagenous fiber formation, it was graded as 1+ for insignificant formation of collagenous fibers as observed with trichrome dye, 2+ for scatteringly spaced collagenous fibers, and 3+ for dense collagenous fibers.

In another data set the test system is K562 cells. In words: K562 cell adhesion to coated proteins (hexosaminidase analysis). It counts as cell-based. Conditions: 1 hour. As for the experimental part:
For another control experiment, K562 cells, known to express α5, but not α3 integrin, were used. K562 cells were inoculated onto plates coated with βigh3-WT, fibronectin, laminin, or type I collagen and incubated for 1 hour, followed by the hexosaminidase analysis.

Data set [5] concerns HCE cells. The data set can be described thus: Inhibition assay of HCE cell adhesion using matrix peptides and reagents. The format is cell-based, human. Conditions: HCE cells preincubated 30 min with reagent. The method, then: In order to identify cell surface receptors involved in the cell adhesion activity of βig-h3 protein, an inhibition assay was performed using various reagents.
Initially, plastic culture dishes were coated with 10 μg/ml fibronectin, βigh3-WT or βigh3-ΔRGD. HCE cells were preincubated for 30 min in media containing 5 mM EDTA, 100 μg/ml βigh3-WT, 100 μg/ml βigh3-ΔRGD, 1 mM RGD, 1 mM RGE or 100 μg/ml fibronectin, or none of them, and then assayed for cell adhesion as in Example 1.

Entries after “also recorded” stand apart in the source; their conditions may differ.

Results on four molecules are retold here after patent publication US7396682B2, “Method for cell adhesion and wound healing” (Regen Biotech, Inc., priority 2000, dated 2008).

`[Cl][Mn][Cl]` [Mn^2+, MnCl2]: the “promotion of cell adhesion to βig-h3 by divalent cations” value with HCE cells [1] is “strongly promoted”.

In the case of `[Ca+2].[Cl-].[Cl-]` [Ca^2+, CaCl2], the “promotion of cell adhesion to βig-h3 by divalent cations” value in the data set with HCE cells [1] is on record as “only marginally”.

B1: βig-h3 D-IV: recombinant polypeptide, 4th fas-1 domain of βig-h3, amino acids 498-637 (SEQ ID NO:26) (protein)
chain: LTPPMGTVMDVLKGDNRFSMLVAAIQSAGLTETLNREGVYTVFAPTNEAFRALPPRERSRLLGDAKELANILKYHIGDEILVSGGIGALVRLKSLQGDKLEVSLKNNVVSVNKEPVAEPDIMATNGVVHVITNVLQPPAN
modifications: left off: small tags and cut ends
In the case of B1, in data set [2] (HCE cells on coated recombinant protein), the “HCE cell adhesion activity” value is reported as “equally active compared to the wild type βig-h3; also recorded: high cell attachment activity”. Moreover, in data set [3], the polymer formation result is “did not form polymers”. The wound area turned out to be 3.15 in data set [4] (Day 0); 2.62 cm² in data set [4] (Day 2); 2.37 in data set [4] (Day 4); 1.98 in data set [4] (Day 6); 1.51 cm² in data set [4] (Day 8); 0.98 cm² in data set [4] (Day 10). In addition, the wound area is 0.44 in data set [4] (Day 12); 0.22 in data set [4] (Day 14); 0.20 in data set [4] (Day 16); 0.18 in data set [4] (Day 18); 0.13 in data set [4] (Day 20); 0.06 in data set [4] (Day 22). Besides, the “Formation grade of collagenous fibers at wound” value is 1+ in data set [4] (Day 3); “+1” in data set [4] (Day 7, listed as 1-D); 1+ in data set [4] (Day 7, listed as βigD-IV); 2+ in data set [4] (Day 10); 3+ in data set [4] (Day 14); 3+ in data set [4] (Day 20). Moreover, the “Re-ephithelialization of Wound (grade)” value is listed as 0 in data set [4] (Day 3); 0 in data set [4] (Day 7); 1+ in data set [4] (Day 10); 2+ in data set [4] (Day 14); 3+ in data set [4] (Day 20). The molecule also returned a completion of re-epithelialization in data set [4] (optical microscope) of 20 days.

B2: βigh3-WT: wild-type human recombinant βig-h3 protein (SEQ ID NO: 22) (protein, UniProt Q15582 24-683, looked up)
Transforming growth …: GPAKSPYQLVLQHSRLRGRQHGPNVCAVQKVIGTNRKYFTNCKQWYQRKICGKSTVISYECCPGYEKVPGEKGCPAALPLSNLYETLGVVGSTTTQLYTDRTEKLRPEMEGPGSFTIFAPSNEAWASLPAEVLDSLVSNVNIELLNALRYHMVGRRVLTDELKHGMTLTSMYQNSNIQIHHYPNGIVTVNCARLLKADHHATNGVVHLIDKVISTITNNIQQIIEIEDTFETLRAAVAASGLNTMLEGNGQYTLLAPTNEAFEKIPSETLNRILGDPEALRDLLNNHILKSAMCAEAIVAGLSVETLEGTTLEVGCSGDMLTINGKAIISNKDILATNGVIHYIDELLIPDSAKTLFELAAESDVSTAIDLFRQAGLGNHLSGSERLTLLAPLNSVFKDGTPPIDAHTRNLLRNHIIKDQLASKYLYHGQTLETLGGKKLRVFVYRNSLCIENSCIAAHDKRGRYGTLFTMDRVLTPPMGTVMDVLKGDNRFSMLVAAIQSAGLTETLNREGVYTVFAPTNEAFRALPPRERSRLLGDAKELANILKYHIGDEILVSGGIGALVRLKSLQGDKLEVSLKNNVVSVNKEPVAEPDIMATNGVVHVITNVLQPPANRPQERGDELADSALEIFKQASAFSRASQRSVRLAPVYQKLLERMKH
As for B2, the “cell adhesion and spreading activity (numbers and surface areas of attached HCE cells)” value in data set [2] (HCE cells on coated protein, 1 hour at 37° C.) is reported as “clearly greater than those attached to albumin”. Besides, the “adhesion of K562 cells to coated protein” value in the data set with K562 cells is listed as “did not adhere”. Further, in the data set with HCE cells [5] (dishes coated with 10 μg/ml fibronectin), the “inhibition of cell adhesion to fibronectin” value is “partially inhibited”. Also, in the data set on HCE cells [5] (dishes coated with 10 μg/ml βig-h3), the “inhibition of cell adhesion to βig-h3” value is listed as “significantly inhibited”.
